What was measured:
[1] = molecular target: T1, full length CD32b2 on transfected IIA1.6 cells (human, UniProt P31994-2 43-291); experiment: flow cytometry on IIA1.6-CD32b2 cells
T1 construct: whole, on cells; also called IIA1.6-CD32b2
T1 sequence (looked up): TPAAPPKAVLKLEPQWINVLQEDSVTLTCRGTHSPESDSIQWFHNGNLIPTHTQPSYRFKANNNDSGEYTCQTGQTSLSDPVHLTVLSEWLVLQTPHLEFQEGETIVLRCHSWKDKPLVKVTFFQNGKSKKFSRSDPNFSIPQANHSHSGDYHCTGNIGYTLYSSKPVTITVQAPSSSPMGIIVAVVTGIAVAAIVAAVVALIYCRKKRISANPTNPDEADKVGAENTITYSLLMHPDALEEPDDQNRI
Protocol: After harvesting and counting, IIA1.6 cells stably transfected with full length CD32a and CD32b (van den Herik-Oudijk et al., 1994), control IIA1.6 cells and Daudi-luc cells were resuspended in PBS (1×10⁶ cells/ml). Cells were put in 96-well V-bottom plates (100 μl/well) and washed twice with FACS buffer (PBS supplemented with 0.1% BSA and 0.02% Na-azide). Thereafter, 50 μl of serially diluted HuMab in FACS buffer was added to the cells and incubated for 30 minutes at 4° C. After washing three times with FACS buffer, 50 μl of phycoerythrin (PE)-conjugated rabbit anti-human IgG (Jackson ImmunoResearch Europe), diluted 1:200 in FACS buffer, was added. After 30 minutes at 4° C. (in the dark), cells were washed three times, and specific binding of the HuMabs was detected by flow cytometry on a FACSCalibur (BD Biosciences). […] Binding curves were analyzed using non-linear regression (sigmoidal dose-response with variable slope) using GraphPad Prism V4.03 software (GraphPad Software, San Diego, Calif., USA).
To analyze binding of anti-CD32b HuMabs to CD32b1 and CD32b2, IIA1.6 cells transfected with full length CD32b1 or CD32b2 (van den Herik-Oudijk et al., 1994) were prepared as described supra. The assay was performed as described supra. Flow cytometry was performed on a FACS Canto II (BD Biosciences).

biotinylated CD32bECDHis [2] = molecular target: T2, biotinylated CD32bECDHis (human, UniProt P31994 43-223, limits assumed, biotinylated (sites not given)); experiment: competition ELISA, competitor 016
T2 sequence (looked up): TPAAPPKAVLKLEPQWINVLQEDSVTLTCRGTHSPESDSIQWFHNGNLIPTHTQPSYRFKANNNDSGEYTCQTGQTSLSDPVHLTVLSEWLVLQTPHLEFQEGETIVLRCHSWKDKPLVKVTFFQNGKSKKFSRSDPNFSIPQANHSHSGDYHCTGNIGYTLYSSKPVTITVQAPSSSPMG
Protocol: (§1) ELISA wells were coated overnight at 4° C. with anti-CD32b HuMabs serially diluted in PBS. The ELISA wells were washed with PBS, blocked for one hour at room temperature with 2% (v/v) chicken serum (Gibco, Paisley, Scotland) in PBS and washed again with PBS. Subsequently, the immobilized antibodies were incubated with biotinylated CD32bECDHis serially diluted in PBSTC. After washing with PBS/Tween, bound biotinylated CD32bECDHis was incubated with Streptavidin-poly-HRP (Sanquin, Amsterdam, The Netherlands) for 1 hr at RT an the reaction was developed as described supra.
(§2) To this end, ELISA wells coated with anti-CD32b HuMabs were incubated in the presence of an excess of CD32b-specific antibody and the predetermined concentration of biotinylated CD32bECDHis in fluid phase. The reaction was developed as described.

biotinylated CD32bECDHis [3] = molecular target: T2, biotinylated CD32bECDHis; experiment: competition ELISA, competitor 020
Protocol: as §1, §2

biotinylated CD32bECDHis [4] = molecular target: T2, biotinylated CD32bECDHis; experiment: competition ELISA, competitor 022
Protocol: as §1, §2

biotinylated CD32bECDHis [5] = molecular target: T2, biotinylated CD32bECDHis; experiment: competition ELISA, competitor 024
Protocol: as §1, §2

biotinylated CD32bECDHis [6] = molecular target: T2, biotinylated CD32bECDHis; experiment: competition ELISA, competitor 026
Protocol: as §1, §2

biotinylated CD32bECDHis [7] = molecular target: T2, biotinylated CD32bECDHis; experiment: competition ELISA, competitor 028
Protocol: as §1, §2

biotinylated CD32bECDHis [8] = molecular target: T2, biotinylated CD32bECDHis; experiment: competition ELISA, competitor 034
Protocol: as §1, §2

biotinylated CD32bECDHis [9] = molecular target: T2, biotinylated CD32bECDHis; experiment: competition ELISA, competitor 038
Protocol: as §1, §2

biotinylated CD32bECDHis [10] = molecular target: T2, biotinylated CD32bECDHis; experiment: competition ELISA, competitor 053
Protocol: as §1, §2

biotinylated CD32bECDHis [11] = molecular target: T2, biotinylated CD32bECDHis; experiment: competition ELISA, competitor 063
Protocol: as §1, §2

biotinylated CD32bECDHis [12] = molecular target: T2, biotinylated CD32bECDHis; experiment: competition ELISA, competitor 2B6
Protocol: as §1, §2

CD32bECDHis = molecular target: T3, CD32bECDHis (human, UniProt P31994 43-223, limits assumed); experiment: TR-FRET competition against HuMab-KLH-AlexaFluor 647 (N = 2)
T3 construct: Produced in HEK-293F cells; also called extracellular domain of CD32b with C-terminal His tag; soluble CD32b
T3 sequence (looked up): T2 sequence (looked up)
Source text: To study the interaction of anti-CD32b HuMabs with CD32b and CD32a in more detail TR-FRET technology was applied. To this end, CD32bECDHis and CD32aECDHis were labeled with a fluorescent donor molecule directed against the histidine tag (Anti-6×His Europium3+, PerkinElmer, Boston Mass.).
Briefly, all dilutions were made in 0.5× Lance detection buffer (PerkinElmer, Boston Mass.) supplemented with 0.2% BSA (obtained via dilution of 7.5% BSA Stabilizer solution, cat: CR84-100, PerkinElmer) and 0.03% (v/v) Tween-20 (Riedel de Haen, Seelze, Germany). CD32bECDHis and CD32aECDHis were diluted to 0.5 μg/ml. […] Anti-6×His Europium3+ (PerkinElmer, Boston Mass.) was diluted to 0.15 μg/ml. […] After overnight incubation at 4° C. in the dark, fluorescence was measured using an EnVision 2101 Multilabel reader (PerkinElmer, Boston, Mass.) applying the following settings; Lance/Delfia dual mirror, emission filter 615-665 nm, excitation filter 320 nm, delay time 60 μs, window 100 μs, 100 flashes, 2000 μs per cycle and bidirectional row-by-row reading. Binding curves were analyzed using non-linear regression (sigmoidal dose-response with variable slope) using GraphPad Prism V4.03 software (GraphPad Software, San Diego, Calif., USA).

B1: Antibody 034 (antibody, human IgG1, V domains shown)
VH: EVQLLESGGGLVQPGGSLRLSCAASGFTFSNFVMSWVRQAPGKGLEWVSGISGSGGNTDHADSVKGRFTISRDNSKNTVYLQMNSLRAEDTAVYYCAKDSGGLFDYWGLGTLVTVSS
VL: not shown
notes: Human antibody; also called HuMab 034
For B1, which EC50 [1] is on record?
The EC50 was 69 nM.

And the “% residual binding” value (biotinylated CD32bECDHis [2])?
Its value is 98%.

And the “% residual binding” value (biotinylated CD32bECDHis [3])?
The value was 83%.

And the “% residual binding” value (biotinylated CD32bECDHis [4])?
Its value is 63%.

What about the “% residual binding” value (biotinylated CD32bECDHis [5]) of the same binder?
The value was 56%.

What about the “% residual binding” value (biotinylated CD32bECDHis [6]) of the same binder?
The value was 83%.

What about the “% residual binding” value (biotinylated CD32bECDHis [7]) of the same binder?
The value was 75%.

What about the “% residual binding” value (biotinylated CD32bECDHis [8]) of the same binder?
Its value is 23%.

And the “% residual binding” value (biotinylated CD32bECDHis [9])?
The value was 98%.

And the “% residual binding” value (biotinylated CD32bECDHis [10])?
The value was 90%.

And the “% residual binding” value (biotinylated CD32bECDHis [11])?
Its value is 89%.

And the “% residual binding” value (biotinylated CD32bECDHis [12])?
The value was 90%.

What about the IC50 (CD32bECDHis) of the same binder?
Its IC50 is 0.45 nM.

From patent US20110038869A1 (Genmab, published 2011)
